Assay: yeast display, Sf9 membrane polyspecificity reagent, FACS + sequencing; frameworks hold sequencing errors
In short: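 Synthetic nanobody libraries on Saccharomyces cerevisiae BJ5465 were galactose-induced for 36–48 hours, stained 1 hour at 4 °C with 10% biotinylated, detergent-solubilized Sf9 membrane reagent and enriched on streptavidin microbeads. FACS then separated cells into low and high (top ~1%) gates by anti-HA (expression) and streptavidin (reagent binding) fluorescence. Genes were colony-PCR amplified, MiSeq 2 × 250 sequenced and CDR-length filtered. A clone's polyreactivity label is that of its gate of origin.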

Row | Sequence | polyreactivity (PSR sort gate)
1 | QVQIVESGGGLVQAGGILRLSCAASGNTFGYYAMGWYRQAPGKEWELVAAISRGGGSTYYADSVKGRFTISRDNAKNTVYLQMNRLKPEDTAVYYCARRYRLSTSWSYRVGYWGQGTQVTVSS | high polyreactivity
2 | QVQRVESGGGLVQAGGSLRLSCAASGRTFWTNAMGWYRQAPGTERELVAAISGSGGSTYFADSVKGRFTISRDNAKNTVYLQMNSLKPEDTAVYYCAAYSRFRYDYWGQGTQVTVSS | high polyreactivity
3 | QVQLVESGGGLVLAGGSLRLSCAASGRIFWNYAMGWYRQAPGKERELVASINWSGGSTYYADSVKGRFTISRDNAKNTVYLQMNSLKPEDTAVYYCNKDGRVYLDHDYWGQGTQVTVSS | low polyreactivity
4 | QVQLVESGGCIVQAGGSLRLSCSASGLLFYINPMGWYRQAPGKEREFVAGINRNGGSTYYADSVKGRFTISRDNALYSVYLQMNSLKPEDTAVYYCNADQYWDRYFSWGQGTQGTVSS | low polyreactivity
5 | QVQLVESGGGIVQAGGSLRLSCAASGITFVAYDMGGYRQAPGKERELVAAITWNGDRTYYADSVKGRFTISRDNAKNTVYVEMNSLKPEDTAVYDCSAYHYYYEMDYWGQGTQVTVPS | high polyreactivity
6 | QVQLVESGGGLVHAGGSLRLSCAASGRTFKIYAMGWYRQAPGKERELVATISWRGGSTYYADSVKGRFTISRDNAKNTVYLQMNSLKPEDTAVYYCAKALYVAGSAYRAGYGVRYDYWGQGTQVTVSS | low polyreactivity
7 | QVQLVESGGGLVQAGGSLRLSCAASGLTFDDYAMGWYRPAPWKEREFVATITLRGGSTYYADSVKGRFTISRDNAKNTVYLQLNSLKPEDTAVYYCNTDLGYSLEWDYDYWGQGTQVTVSS | low polyreactivity
8 | QDQHVESGGGLVQAGGSLRLSSAASGFTFKGNAMGWYRQGPGKVMELVATITQSAGSTYYADSVKGRFSISRDNAKNTVYLQMNSLKPEDTGVYFCNADPITLYYYSWYNYWGQGTQVTVSS | low polyreactivity
9 | QVQLVESGGGLVQAGGSLRLICAASGRIFYNNAMGWYRQARGKERELVAGISRSSGRTYYADSVTGRFTISRDNAKNTGYLQMNSLKPVDTAVYYCAADWHYRSTARRMGYWGQGTQVTVSS | high polyreactivity
10 | QVQLVESCGGLVQAGGSLRLSCAASGSIFSRNTMGWYRQAPCKERELVAGISSSGSRTYYADSVKGRFTISRDNSKNTVYLQMNSLKPEYTAVYYCAAEHQRSRGRRYYIGYDYWGQGTQVTVSS | low polyreactivity
11 | QVQLVESGGGLVQAGGSLRLSCAASGRIFYANAMGWYRQAPGKERELVAAISSGGSTYYADSVKGRFTISRDNANNTVYLQMNSLKPEDTAVYYFAASTVGQTFSYYVDTYDYWGQGTQVTVSS | low polyreactivity
12 | QVQLVESGGGLVQAGGSLRLSCAASGSIFHRYAMGWYRQAPGKEREFVAAISGRGGSTYYADSVKGRFTISRDNAKNSVYLQMNSLKPEDTAVYYCAADSSRFYGRPRYYYWGQGTQVTVSS | high polyreactivity
13 | QVQLVESGGGLVQAGGSLRLSCAASGYIFGRYAMGWYRQAPGKERELVAAISSTGDSTYYADSVKGRFTISRDNAKNTVYLQMNSLKPEDTAVYYCNAVVRRYSYGRYYYWGQGTQVTVSS | high polyreactivity
14 | QVQLVESGGGLVQAGGSLRLSCAPSGSIFWLYDMGWYRPAPGKERELVAAIDSGDSTKYADSVKGRFTISRDNAKNTVYLQMNSLKPEDTAVYYCNASRRYHVRAPYDYWGQGTQVTVSS | low polyreactivity
15 | QVQRVESGGGLVQAGGSLRLSCAASGSIFTSNVRGWYRQAPGKERELDAAITITGTTNYADSVKGRFTISRDNAKNTVYFQMNRLKPEDTAVYYCAKDPVELSPADWRADYDYWGQGSQVTVSS | low polyreactivity
16 | QVQLVESGGGLVQAGGSLRLSCAASGSIFRVYAMGWYRQAPGKERELVARISWSDDGTYYADSVKGRFTISRDNAKNTVYLQMNSLKPEDTAVYYCNADSYYYPYDYWGQGTQVTVSS | low polyreactivity
17 | QVQLVESGGGLVQAGGSLRLSCAASGSTFRYYAMGWYRQAPGKERELVAGICSGGTTKYADSVKGRFTISRDNAKNTVYLQMNSLKPEDSAVYYCAARFRRTRVTYYYWGQGTQVTVSS | high polyreactivity
18 | QVQLVESGGGLVQAGGSLRLSCAASGSIFARNAMGWYRQAPGKERELVASITWSGASTYYADSVKGRFTISRDNAKNTVYLQMNSLKPEDTAVYYCAATDQKLSLDYSSYEYWGQGTQVTVSS | low polyreactivity
19 | QVQLVESGGGLVQAGGSLRLSCAASGSTFVPYAMGWYRQAPGKERELVAAISQSGGSTYYADSVKGRYTISRDNAKNTVYLQMTSLKPEYTAVYYCNVDQFRYPEYDYWGQGTQVTVSS | high polyreactivity
20 | QVQLVESGGGLVQAGGSLRLSCAASGSIFPQNAMAWYRQAPGKERELVASISSGGRTNYADSVKGRFTISRDNAKNTVYLQMNSLKPEDTAVYYCNARYRGYYGPKTHGVTYYYWGQGTQVTVSS | low polyreactivity
21 | QVHLVESGGGLVQAGGSLRLSCAASGFPFADNAMGWNRQAPGKERELVAAISRRGGSTYYADSVKGRFTISRDNAKNTVYLQMNSLKAEDTAVYYCAALGNRYPYYYYYGSYYPVEYWGQGTQVTVSS | high polyreactivity
22 | QVQLVESGGGLVQAGGSLRLSCAASGRNFGSYAMGWSRQAPGKERELVAGIRSVGSTNYADSVKGRFTISRDNAKNTVYLQMNSLKPEDTAVYYCAARLWHLSYAGQGGDYWGQGTQVTVSS | low polyreactivity

Row | Sequence | polyreactivity (PSR sort gate)
23 | QVQLVESGGGLVQAGGSLRLRCAASGSTFYGYAMGRYRQAPGTERELVALISSSSGRTYYADSVKGRFTISRDNAKNTLYLQMNSLKPEDTAVYDCAKYVFGKFEGVRYSFDYWGQGTQVTVSS | low polyreactivity
24 | QVQLVESGGGLVQAGGSLRLSCAASGRIFGKNAMGWYRQAPGKERELVAAIRGNGGSTYYADSVKGRFTISRDNAKNTVYLQFNSLKPEDTAVYYCAARASAYFGRYYLYDYWGQGTQVTVSS | high polyreactivity
25 | QVQLVESGGGLVQAGGSLRLSCAASGNIFSFNDVGGSRQAPGNEREWVAAITSSDSTNYADSVKGRFTISRDNAKNTVYLQMNSLKPEDTAVYYCATEILTAARDTVVYQFYLGYYYWGQGTQVTVSS | low polyreactivity
26 | QVQLVESGGGLVQAGGSLRLSCAASGRTFYDYAMGWYRQAPGKERELVAASSRRAGSTYYADSVKGRFTISRDNAKNTVFLEMNSLKPEDTSVYYCAAAYYRRWWRGHHYAFDYWGQGSQVTVSS | high polyreactivity
27 | QVHLVESVGGLVQAGGSLRLSCAASGRTFRRYAMVWYRQAPGKERELVATITSADSTNYADSVKGRFTISRDNAKNTVYLQMNSLKPEDTAVYYCAKRWGRYAMYYWGQGTQVTVSS | high polyreactivity
28 | QVQLVESGGGLVQAGGSLRLSCAASGRIFNYNAMGWYRQAPGKEREFVATISGRAGRTYYADSVKGRFTISRDNAKNTVYLQMNSLKPEDTAVYYCNAGQWRYPGLYYYWGQGTQVTVSS | high polyreactivity
29 | QVQLVESGGGLVQAGGSLRLSCAASGLTFYTNAMGSYRQAPGKERELLAAITSSGGRTYYADSVKGRFTISRDNAKYTVYLQMNSLKPEDTAVYYCAADARRPRIPEMYYWGLGTQVTVSS | high polyreactivity
30 | QVQLVESGGGLVQAGGSLRLSCAASGITFHVNAMGWYRQAPGKERELVARITTSGGSTSYADSVKGRFTISRDNAKNTVYLQMNSLKPEDTAVYYCAADLARYYSEYDYWGQGTQVTVSS | low polyreactivity
31 | QVQLVESGGGLVQAGGSLRLSCAASGYIFADNDMGWYRQAPGKERELVASIDWSGGSTYYADSVKGRFTISRDNAKNTVYLQMNSLKPEDTAVYYCNKGAFGGVSSYIYWAFYSGYDYWGLGTQVTVSS | low polyreactivity
32 | QVQLVESGGGLVQAGGSLRLSCAASGSTFVHNGMGWYRQAPGIDRELVGAITDGGSTYYADSVKGRFTISRDNAKNTVYLQMNSLKPEDTAVYYCAAGYSRYGYFRGYRYYYWGQGTQVTVSS | low polyreactivity
33 | QVQLVESGGGLVQAGGSLRISCAASGLTFDYYAMGSYRQAPGKERELVAAITSGSITYYADSVKGRFTISRDNAKNTVYLQMNSLKPEDTAVYYCAAKRTSFTARYGYWGLGTQVTVSS | high polyreactivity
34 | QVQLVESGGGLVQAGGSLRLSCAASGFIFYSSDMGWYRQSPGKERELVAAIDSRGVNTYYADSVKGRFTISRDNAKNTVYLQMNSLKPEDTAVYYCNVDAINWWDWEDFDYWGQGTQVTVSS | low polyreactivity
35 | QDQLVESGGGLVQAGGSLRLSCAASGSIFRAYAMGRYRQPPGKERELVAAIIWTDGSTYYADSVKGRFTISRDNAKNTVYLQMNSLKPEDTAVYYCAKDSIARHNYWGQGTQVTLSS | low polyreactivity
36 | QVQLVESGGGLVQAGGSLRLSCAASGSIFNKYAMGWYRQAPGKEREFVAAITQGGGRTYYADSVKGRFTISRDNAKNTVYLQMNSLKPEDTAVYYCNAAVYSRARGSYRRRYDYWGQGTQVTVSS | high polyreactivity
37 | QVQLVESGGGLVQAGGSLRLSCAAYGSTLSPYTMGWYRQAPGKERELVAAITQSGGSTYYADSVKGRFTISRDKAKYTVYLQMNSLKPEDTAVYYCNRDYNADYDWGQGTQVTVSS | high polyreactivity
38 | QVQLVESGGGLVQAGGSLRLTCAASGIIFSGYAMGWYRQAPGTERELVASIRSGSNTYYADSVKGRITISRDNAKYTVYFQMNSLKPEDTGVYYCAADIEYSYFQVFSYNYEYWGQGSQVTVSS | low polyreactivity
39 | QVQLVESGGGLVQAGGSLRLSCAASGRIFAYYAMGWYRQAPGKERELVAAITTNGGGTYYADSVKGRFTISRDNAKNTVYLQMNSLKPEDTAVYYCNAVKQRSSIFDYWGQGTQVTVSS | low polyreactivity
40 | QVQLVESGGGLDQAGGSLRLSCAASGITFQSNAMGWYRQAPGKERELVAGISGSGARTYYADSVKGRFTISRDNAKNTVYLQMNSLKPEDTAVYYCAKKSSYRYGYWGQGTQVTVSS | high polyreactivity
41 | QVQLVESGGGLVQAGGSLRLSCAAAGSIFGSYAMGWSRQAPGKERELVPAINSGGATIYSDSVKGRFTISRDNAKNTVYLQMNSLKPEDTAVYYCNAPGRRFNRYGGDYWGQGTQVTVSS | high polyreactivity
42 | QVQLVESGGGLVQAGGSLRLSCAASGSTFGENAMGWYRQAPGKERELVAAISDSGGDTYYADSVKGRFTISRDNAKNTVYLQMNSLKPEDTAVYYCAADRYGYWYAYYSWGQGTQVTVSS | low polyreactivity
43 | QVQLVESGGGLVQAGGSLRLSCAASGSTFQSYAMGWYRPAPGKERELVATITWSSGRTYYADSVKGRFTISRDNAKNTVYLQMKSLKPEDTAVYYCAARKRPFYKYDYWGQGTQVTVSS | high polyreactivity

— the nanobody polyreactivity screen of Harvey et al. (2022)
